Data as given in PMC10700433 (Cancer Immunology, Immunotherapy : CII, 2023).
One block for each binder: values may come before it.

Legend:
ATOR-1017 (evunzekibart) [1] = target: T1, ATOR-1017 (evunzekibart) (human); assay: BLI; Octet RED96; antibodies captured on FABG2 biosensor tips, recombinant FcRn in solution; association studied at physiological pH, dissociation at pH6; details: both partners purified
T1 construct: as the VH of Wm14, which is in PDB 8OZ3 (amino acids 2-118 modelled); human IgG4 heavy chain constant region, S228P stabilised; as the VL of Wm14, which is in PDB 8OZ3 (amino acids 2-110 modelled); light chain constant region; IgG4 (S228P)

human CD137-His = target: T2, human CD137-His (Homo sapiens, UniProt Q07011); assay: BLI; Octet Red96 (ForteBio); who was immobilised not stated; details: both partners purified
T2 construct: human 4-1BB (CD137, TNFRSF9), recombinant His-tagged protein from Acro; also called human 4-1BB; TNFRSF9; source: bought: Acro

[2] = target: T3, cynomolgus 4-1BB/TNFRSF9-His (Macaca fascicularis, UniProt A9YYE7); assay: as above; details: both partners purified
T3 construct: cynomolgus 4-1BB (TNFRSF9), recombinant His-tagged protein from Acro; source: bought: Acro

[3] = target: T4, human 4-1BB expressed on CHO-K1 cells (human, UniProt Q07011); assay: flow cytometry on cells; CHO-K1 cells stably expressing human or cynomolgus 4-1BB incubated with serially diluted ATOR-1017; detected with goat anti-hIg Fc-PE; MFI; details: one partner purified
T4 construct: human 4-1BB (CD137, TNFRSF9) from a gene in pcDNA3.1 (GenScript); also called CHO-hu4-1BB; hu4-1BB-CHO; source: CHO-K1, stably transfected (pcDNA3.1), on cells

[4] = target: T5, cynomolgus 4-1BB expressed on CHO-K1 cells (Macaca fascicularis, UniProt A9YYE7); assay: as above; details: one partner purified
T5 construct: cynomolgus 4-1BB (TNFRSF9) from a gene in pcDNA3.1 (GenScript); also called CHO-cy4-1BB; cy4-1BB-CHO; source: CHO-K1, stably transfected (pcDNA3.1), on cells

ATOR-1017 (evunzekibart) [5] = target: T1, ATOR-1017 (evunzekibart); assay: BLI; Octet RED96; antibodies captured on FABG2 biosensor tips, recombinant Fcγ receptors in solution at suitable concentration ranges; association and dissociation at physiological pH; details: both partners purified

T4 sequence (Q07011 24-255): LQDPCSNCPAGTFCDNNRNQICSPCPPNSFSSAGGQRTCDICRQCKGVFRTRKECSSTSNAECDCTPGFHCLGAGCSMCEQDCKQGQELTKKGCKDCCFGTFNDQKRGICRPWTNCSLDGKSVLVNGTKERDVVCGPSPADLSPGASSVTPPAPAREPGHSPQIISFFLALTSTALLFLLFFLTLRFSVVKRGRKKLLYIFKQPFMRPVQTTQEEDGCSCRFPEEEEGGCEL
T2 sequence (Q07011 24-186): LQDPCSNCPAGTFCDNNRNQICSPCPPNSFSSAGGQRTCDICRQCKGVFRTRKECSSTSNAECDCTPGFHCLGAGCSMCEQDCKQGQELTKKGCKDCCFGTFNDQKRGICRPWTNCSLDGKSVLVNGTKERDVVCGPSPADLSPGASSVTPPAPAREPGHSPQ

Kd (ATOR-1017 (evunzekibart) [1]): 200 nM
B1: mouse FcRn (receptor)
chain 1: SETRPPLMYHLTAVSNPSTGLPSFWATGWLGPQQYLTYNSLRQEADPCGAWMWENQVSWYWEKETTDLKSKEQLFLEALKTLEKILNGTYTLQGLLGCELASDNSSVPTAVFALNGEEFMKFNPRIGNWTGEWPETEIVANLWMKQPDAARKESEFLLNSCPERLLGHLERGRRNLEWKEPPSMRLKARPGNSGSSVLTCAAFSFYPPELKFRFLRNGLASGSGNCSTGPNGDGSFHAWSLLEVKRGDEHHYQCQVEHEGLAQPLTVDLDSSARSS
chain 2: IQKTPQIQVYSRHPPENGKPNILNCYVTQFHPPHIEIQMLKNGKKIPKVEMSDMSFSKDWSFYILAHTEFTPTETDTYACRVKHASMAEPKTVYWDRDM
modifications: soluble Fcgrt/B2m heterodimer assumed by convention; B2m not given

Kd (human CD137-His): 0.1 nM
Kd [2]: 0.2 nM
EC50 [3]: 0.5 nM
EC50 [4]: 0.5 nM
B2: ATOR-1017 (evunzekibart) (antibody, V domains shown)
VH: EVQLLESGGGLVQPGGSLRLSCAASGFNFGYSYMSWVRQAPGKGLEWVSSIGSTSSHTYYADSVKGRFTISRDNSKNTLYLQMNSLRAEDTAVYYCARVYSSPGIDYWGQGTLVTVSS
VL: DIQMTQSPSSLSASVGDRVTITCRASQSIGSTLNWYQQKPGKAPKLLIYGASSLQSGVPSRFSGSGSGTDFTLTISSLQPEDFATYYCQQYYTWVPFTFGQGTKLEIK
notes: the variable domains stand in the scFv of PDB 8OZ3 (heavy chain amino acids 2-118 modelled); human IgG4 constant part, S228P stabilized; the variable domains stand in the scFv of PDB 8OZ3 (light chain amino acids 2-110 modelled); light chain constant domain; IgG4 (S228P); variable domains from the human scFv library ALLIGATOR-GOLD, optimized

Kd (ATOR-1017 (evunzekibart) [5]): 400 nM
B3: mouse FcγRIV (receptor)
chain: GLQKAVVNLDPKWVRVLEEDSVTLRCQGTFSPEDNSIKWFHNESLIPHQDANYVIQSARVKDSGMYRCQTALSTISDPVQLEVHMGWLLLQTTKWLFQEGDPIHLRCHSWQNRPVRKVTYLQNGKGKKYFHENSELLIPKATHNDSGSYFCRGLIGHNNKSSASFRISLGDPGSPSMFPPWHQ
modifications: soluble ectodomain assumed for BLI

Kd (ATOR-1017 (evunzekibart) [5]): 100 nM
B4: mouse FcγRIII (receptor)
chain: ALPKAVVKLDPPWIQVLKEDMVTLMCEGTHNPGNSSTQWFHNGRSIRSQVQASYTFKATVNDSGEYRCQMEQTRLSDPVDLGVISDWLLLQTPQRVFLEGETITLRCHSWRNKLLNRISFFHNEKSVRYHHYKSNFSIPKANHSHSGDYYCKGSLGSTQHQSKPVTITVQDPATTSSISLVWYHT
modifications: soluble ectodomain assumed for BLI

Kd (ATOR-1017 (evunzekibart) [5]): 300 nM
B5: mouse FcγRIIb (receptor)
chain: THDLPKAVVKLEPPWIQVLKEDTVTLTCEGTHNPGNSSTQWFHNGRSIRSQVQASYTFKATVNDSGEYRCQMEQTRLSDPVDLGVISDWLLLQTPQLVFLEGETITLRCHSWRNKLLNRISFFHNEKSVRYHHYSSNFSIPKANHSHSGDYYCKGSLGRTLHQSKPVTITVQGPKSSRSLP
modifications: soluble ectodomain assumed for BLI
